Where no end group is shown, it is not given here. [ ]: non-standard residue; d: D form. The star is where a group is joined. NMeF = CN[C@@H](Cc1ccccc1)C(=O)O; NHCH2CH2OH = OCCN*

Test [1] addresses human mu opioid receptor (MOR), stably expressed in HEK293 cells with GloSensor (human, UniProt P35372 1-400).
The target in test [2] is mu opioid receptor (MOR) of wild type mouse brain (mouse (endogenous in brain), UniProt P42866 1-398).
Chain of mu opioid receptor (MOR) of wild type mouse brain (P42866 whole entry): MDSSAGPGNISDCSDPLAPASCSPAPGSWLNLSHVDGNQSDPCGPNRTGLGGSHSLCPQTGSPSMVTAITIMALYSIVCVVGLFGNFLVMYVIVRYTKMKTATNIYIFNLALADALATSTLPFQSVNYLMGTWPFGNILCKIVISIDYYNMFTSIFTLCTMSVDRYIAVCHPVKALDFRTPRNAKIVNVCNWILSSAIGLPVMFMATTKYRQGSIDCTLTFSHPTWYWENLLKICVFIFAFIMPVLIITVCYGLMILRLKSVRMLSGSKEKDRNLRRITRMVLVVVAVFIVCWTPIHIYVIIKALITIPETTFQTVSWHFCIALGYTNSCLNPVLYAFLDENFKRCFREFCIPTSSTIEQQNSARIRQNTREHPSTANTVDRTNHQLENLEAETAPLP

Chain of human mu opioid receptor (MOR), stably expressed in HEK293 cells with GloSensor (P35372 whole entry): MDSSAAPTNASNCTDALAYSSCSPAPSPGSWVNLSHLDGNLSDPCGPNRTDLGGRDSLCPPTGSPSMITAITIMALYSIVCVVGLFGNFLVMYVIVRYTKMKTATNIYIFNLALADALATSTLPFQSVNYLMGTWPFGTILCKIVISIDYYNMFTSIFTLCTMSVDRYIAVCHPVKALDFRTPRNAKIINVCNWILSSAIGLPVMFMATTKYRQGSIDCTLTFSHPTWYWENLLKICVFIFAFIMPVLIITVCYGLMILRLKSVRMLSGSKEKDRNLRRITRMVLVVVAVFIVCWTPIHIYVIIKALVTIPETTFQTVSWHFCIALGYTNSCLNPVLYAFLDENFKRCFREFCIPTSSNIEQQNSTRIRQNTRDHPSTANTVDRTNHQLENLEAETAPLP

B1: DAMGO ([D-Ala2, N-MePhe4, Gly-ol]-enkephalin) (peptide)
chain: Y[dA]G[NMeF][NHCH2CH2OH]
B1: the values for the Ki in test [1] and in test [2] were 9.6 nM and 3.1 nM, respectively.

The record behind these values is article PMC5583172 (2017).
